According to patent publication US20240270821A1, “GIP/GLP1/GCG TRI-RECEPTOR AGONISTS AND USES THEREOF” (priority 2023, published 2024):
Changes are numbered by the printed parent chain.

T1: human GIP receptor (human) (UniProt P48546)
T1 sequence (looked up): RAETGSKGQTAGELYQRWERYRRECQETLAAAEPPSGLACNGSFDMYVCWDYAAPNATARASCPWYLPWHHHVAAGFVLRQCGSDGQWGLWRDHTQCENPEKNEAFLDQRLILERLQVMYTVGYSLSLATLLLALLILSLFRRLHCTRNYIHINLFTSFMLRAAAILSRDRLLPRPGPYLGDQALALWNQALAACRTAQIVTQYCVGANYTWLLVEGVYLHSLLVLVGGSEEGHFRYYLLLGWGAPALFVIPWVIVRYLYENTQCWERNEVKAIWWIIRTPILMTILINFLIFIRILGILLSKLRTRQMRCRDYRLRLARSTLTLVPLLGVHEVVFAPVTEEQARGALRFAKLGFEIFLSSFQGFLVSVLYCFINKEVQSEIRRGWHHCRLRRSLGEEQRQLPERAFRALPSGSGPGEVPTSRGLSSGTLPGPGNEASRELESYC

B1: Example 1189 (peptide)
chain: YXQGTXTSDXXIXLDXKAQXEFIEXLIEGGPPSXXPPPXGS
modifications: non-natural residues, C-terminal amide, acylated Lys with fatty diacid; synthetic construct; SITE 2: note = 2-Aminoisobutyric Acid; SITE 6: note = alpha-methyl-2-fluoro-L-phenylalanine; SITE 10: note = 3-(4-Pyridyl)-L-alanine; SITE 11: note = alpha-methyl-L-serine; SITE 13: note = alpha-methyl-leucine; SITE 16: note = L-ornithine; SITE 17: note = Lysine is chemically mo
B2: Example 1202 (peptide)
chain: B1 chain with E24Q, P32S, X34G, X35A, X39S
modifications: synthetic construct; SITE 2: note = 2-Aminoisobutyric Acid; SITE 6: note = alpha-methyl-2-fluoro-L-phenylalanine; SITE 10: note = 3-(4-Pyridyl)-L-alanine; SITE 11: note = alpha-methyl-L-serine; SITE 13: note = alpha-methyl-leucine; SITE 16: note = L-ornithine; SITE 17: note = Lysine is chemically mo
B3: Example 1196 (peptide)
chain: B1 chain with G40S, S41E
modifications: non-natural residues; lipidated Lys AEEA-γGlu-C18 diacid; C-term amide; synthetic construct; SITE 2: note = 2-Aminoisobutyric Acid; SITE 6: note = alpha-methyl-2-fluoro-L-phenylalanine; SITE 10: note = 3-(4-Pyridyl)-L-alanine; SITE 11: note = alpha-methyl-L-serine; SITE 13: note = alpha-methyl-leucine; SITE 16: note = L-ornithine; SITE 17: note = Lysine is chemically mo
B4: Example 1193 (peptide)
chain: B1 chain with X35E, S41E
modifications: non-natural residues (Aib, αMeF(2F), 4Pal, Orn, Me4Pal); lipidated Lys; C-amide; synthetic construct; SITE 2: note = 2-Aminoisobutyric Acid; SITE 6: note = alpha-methyl-2-fluoro-L-phenylalanine; SITE 10: note = 3-(4-Pyridyl)-L-alanine; SITE 11: note = alpha-methyl-L-serine; SITE 13: note = alpha-methyl-leucine; SITE 16: note = L-ornithine; SITE 17: note = Lysine is chemically mo
B5: Example 1194 (peptide)
chain: B1 chain with X39E, S41E
modifications: non-natural residues; lipidated Lys; C-terminal amide; synthetic construct; SITE 2: note = 2-Aminoisobutyric Acid; SITE 6: note = alpha-methyl-2-fluoro-L-phenylalanine; SITE 10: note = 3-(4-Pyridyl)-L-alanine; SITE 11: note = alpha-methyl-L-serine; SITE 13: note = alpha-methyl-leucine; SITE 16: note = L-ornithine; SITE 17: note = Lysine is chemically mo
B6: Example 1203 (peptide)
chain: B1 chain with G4A, P32S, X34G, X35A, X39S
modifications: synthetic construct; SITE 2: note = 2-Aminoisobutyric Acid; SITE 4: note = D-amino acid; SITE 6: note = alpha-methyl-2-fluoro-L-phenylalanine; SITE 10: note = 3-(4-Pyridyl)-L-alanine; SITE 11: note = alpha-methyl-L-serine; SITE 13: note = alpha-methyl-leucine; SITE 16: note = L-ornithine; SITE 17: n
B7: Example 1191 (peptide)
chain: B1 chain with X34G, X35E, X39E, S41E
modifications: non-natural residues; lipidated Lys AEEA-γGlu-C18 diacid; C-term amide; synthetic construct; SITE 2: note = 2-Aminoisobutyric Acid; SITE 6: note = alpha-methyl-2-fluoro-L-phenylalanine; SITE 10: note = 3-(4-Pyridyl)-L-alanine; SITE 11: note = alpha-methyl-L-serine; SITE 13: note = alpha-methyl-leucine; SITE 16: note = L-ornithine; SITE 17: note = Lysine is chemically mo
B8: Example 1195 (peptide)
chain: B1 chain with S41E
modifications: non-natural residues; acylated Lys; C-terminal amide; synthetic construct; SITE 2: note = 2-Aminoisobutyric Acid; SITE 6: note = alpha-methyl-2-fluoro-L-phenylalanine; SITE 10: note = 3-(4-Pyridyl)-L-alanine; SITE 11: note = alpha-methyl-L-serine; SITE 13: note = alpha-methyl-leucine; SITE 16: note = L-ornithine; SITE 17: note = Lysine is chemically mo
B9: Example 1190 (peptide)
chain: B1 chain with X35E, X39E, S41E
modifications: non-natural residues, acylated Lys, C-terminal amide; synthetic construct; SITE 2: note = 2-Aminoisobutyric Acid; SITE 6: note = alpha-methyl-2-fluoro-L-phenylalanine; SITE 10: note = 3-(4-Pyridyl)-L-alanine; SITE 11: note = alpha-methyl-L-serine; SITE 13: note = alpha-methyl-leucine; SITE 16: note = L-ornithine; SITE 17: note = Lysine is chemically mo
B10: Example 1192 (peptide)
chain: B1 chain with P32S, X35A, X39E, S41E
modifications: non-natural residues; AEEA-γGlu-C18 diacid on Lys; C-terminal amide; synthetic construct; SITE 2: note = 2-Aminoisobutyric Acid; SITE 6: note = alpha-methyl-2-fluoro-L-phenylalanine; SITE 10: note = 3-(4-Pyridyl)-L-alanine; SITE 11: note = alpha-methyl-L-serine; SITE 13: note = alpha-methyl-leucine; SITE 16: note = L-ornithine; SITE 17: note = Lysine is chemically mo

Biological target: hGLP-1R (Homo sapiens, UniProt P43220)
Assay: cell-based or functional assay

hGLP-1R, sequence (P43220 24-463): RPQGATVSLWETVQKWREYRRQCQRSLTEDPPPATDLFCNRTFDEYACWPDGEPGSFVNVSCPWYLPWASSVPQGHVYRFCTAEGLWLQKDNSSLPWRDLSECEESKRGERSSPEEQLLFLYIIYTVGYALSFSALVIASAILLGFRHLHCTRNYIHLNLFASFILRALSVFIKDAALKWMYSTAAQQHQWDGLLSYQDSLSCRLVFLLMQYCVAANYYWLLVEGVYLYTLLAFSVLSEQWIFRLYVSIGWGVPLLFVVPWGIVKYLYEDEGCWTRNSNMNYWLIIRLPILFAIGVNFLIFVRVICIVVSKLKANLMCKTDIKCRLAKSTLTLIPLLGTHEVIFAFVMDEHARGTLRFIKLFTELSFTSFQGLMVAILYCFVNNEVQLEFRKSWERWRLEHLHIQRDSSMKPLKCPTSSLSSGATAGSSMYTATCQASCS

Binder	Relative cAMP EC50	cAMP Rel EC50 (in the presence of 1% HSA)	cAMP Rel EC50 (1% HSA)
B1	0.292 nM	45.4 nM	–
B2	0.237 nM	–	23.1 nM
B3	0.418 nM	45.4 nM	–
B4	0.544 nM	66.2 nM	–
B5	0.51 nM	57.4 nM	–
B6	0.292 nM	–	38.9 nM
B7	0.945 nM	82.3 nM	–
B8	0.367 nM	44.2 nM	–
B9	0.765 nM	77.4 nM	–
B10	0.499 nM	59.5 nM	–

Biological target: T1, human GIP receptor (human)
Assay: cell-based or functional assay

Binder	Relative cAMP EC50	cAMP Rel EC50 (in the presence of 1% HSA)	cAMP Rel EC50 (1% HSA)
B1	0.00597 nM	0.584 nM	–
B2	0.00635 nM	–	0.471 nM
B3	0.00756 nM	0.605 nM	–
B4	0.00897 nM	0.803 nM	–
B5	0.00725 nM	0.759 nM	–
B6	0.0774 nM	–	8.5 nM
B7	0.00992 nM	0.931 nM	–
B8	0.00708 nM	0.637 nM	–
B9	0.0109 nM	0.954 nM	–
B10	0.00924 nM	1.06 nM	–

Biological target: human glucagon receptor (human) (UniProt P47871)
Assay: cell-based or functional assay

human glucagon receptor (human), sequence (P47871 26-477): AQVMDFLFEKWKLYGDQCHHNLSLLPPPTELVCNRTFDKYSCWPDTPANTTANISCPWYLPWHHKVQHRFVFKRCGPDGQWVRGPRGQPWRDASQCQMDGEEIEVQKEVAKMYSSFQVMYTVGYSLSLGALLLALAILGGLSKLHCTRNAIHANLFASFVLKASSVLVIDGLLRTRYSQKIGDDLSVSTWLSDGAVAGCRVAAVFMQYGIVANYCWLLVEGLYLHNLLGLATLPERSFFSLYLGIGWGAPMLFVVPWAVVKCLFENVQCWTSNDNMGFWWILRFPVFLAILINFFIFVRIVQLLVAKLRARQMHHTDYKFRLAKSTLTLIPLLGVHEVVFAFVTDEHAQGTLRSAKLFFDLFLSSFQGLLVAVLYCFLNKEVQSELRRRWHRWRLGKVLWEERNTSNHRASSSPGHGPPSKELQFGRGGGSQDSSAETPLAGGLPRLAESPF

Binder	Relative cAMP EC50	cAMP Rel EC50 (in the presence of 1% HSA)	cAMP Rel EC50 (1% HSA)
B1	1.59 nM	248 nM	–
B2	0.5 nM	–	70.3 nM
B3	1.9 nM	257 nM	–
B4	1.56 nM	202 nM	–
B5	2.02 nM	215 nM	–
B6	2.58 nM	–	436 nM
B7	3.06 nM	243 nM	–
B8	1.74 nM	242 nM	–
B9	1.68 nM	192 nM	–
B10	1.54 nM	218 nM	–
